# Molecular target: directed activation strategy TMPRSS2 (activated TMPRSS2 ectodomain, residues 109-492, DDDDK255 activation motif) (human) (UniProt O15393)
# Test: enzyme inhibition assay
substance,measurement,value
sunflower trypsin inhibitor-1 (from UniProt Q4GWU5 40-56) (peptide),Ki,400 nM
